The results in this text go back to the RNAGym collection of RNA variant scans (doi:10.1073/pnas.2313332121).

B1: TPR 5TU (parent)
chain: GGAUCUUCUCGAUCUAACAAAAAAGACAAAUCUGCCACAAAGCUUGAGAGCAUCUUCGGAUGCAGAGGCGGCAGCCUUCGGUGGCGCGAUAGCGCCAACGUUCUCAACUAUGACACGCAAAACGCGUGCUCCGUUGAAUGGAGUUUAUCAUG

Variants at the floor of the assay were thinned out.

In this data set the parent is B1. The experiment in a line: polymerase ribozyme fitness, log enrichment relative to wild type (log ratio); higher = more active; in vitro selection for triplet polymerase activity. Summed up: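 Only genotypes with ≥10 input reads and ≥1 read per output were kept after Illumina sequencing of input and output libraries. These libraries were PCR-built, transcribed mutants of each subunit of a heterodimeric triplet polymerase ribozyme, each put through one triplicate in vitro selection round with frozen incubation at −7 °C, gel excision of extended constructs, streptavidin-bead capture and RT-PCR. Fitness is a logarithmic ratio of genotype enrichment to wild-type enrichment, from inverse-variance-weighted replicate averages, with the logarithm in base 2.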
As for GGAUCUUCUCGAUCUAACAAAUAAGACAAAUCUGCCACAAAGCUUGAGAGCAUCUUCGGAUGCAGAGGCGGCAGCCUUCGGUGGCGCGAUAGCGCCGACGUUCUCAACUAUGACACGCAAAGCGCGUGCUCCGUUGAAUGGAGUUUAUCAUG, the “polymerase ribozyme fitness (log ratio)” value was determined as 0.332.

As for GGAUCUCCUCCAUCUAACAAAAAAGACAAAUCUGCCACAAAGCUUGAGAGCAUCUUCGAAUGCAGAGGCGCCAGCUUUCGGUGUCGCGAUAGCGCCAACGUUCUCAACUAUGACACGCAAAACGCGUGCUCCGUUGACUGGAGUUUAUCAUG, the “polymerase ribozyme fitness (log ratio)” value was not above -4.2.

Take GGAUCUUCUCGAUCUAACUAAAAAGACAAAGCUGCCACAAAGCUUGAGAGCAUCUUCGGAUGCAGAGGCGGCAGCCUUCGGUGGCGCGAUAGCGCCAACGUUCUCAACUAUGACACGCAAAACGCGUGCUCCGUUGAAUGGAGCUUAUCAUG: the “polymerase ribozyme fitness (log ratio)” value was -1.49.

Take GGAUCUUCUCGAUCUAACAAAAAAGACAAAUCUGCCACAAAGCUUGAGAGCAUCUUCGGAUGCAGAGGCGGCAGCCUUCGGUGGAGCGAUAGCACCAACGUUCUCAACUAUGACACGCAAAACGCGUCCUCCGUUGAAUGGAGUUUAUCAUG: the “polymerase ribozyme fitness (log ratio)” value is -3.21.

In the case of GGAUCUUCUCGAUCUAACAAAAAAGACAAAUCUGCCACAAACCUUGAGAGCAUCUUCGGAUGCAGAGGCGGCAGCUUUCGGUGGUGCGGUAGCGCCAACGUUCCCAACUAUGACACGCAAAACGCGUGCUCCGUUGAAUGGAGUUUAUCAUG, the “polymerase ribozyme fitness (log ratio)” value is not above -4.2.

Regarding GGAUCUUCUCGAUCUAACAAAAAAGAUAAAUCUGCCACAAAGCUUGAGAGCAUCUUCGGAUACAGAGGCGGCAGCCUUCGGUGGCGCGAUAGCGCCUCCGUUCUCAACUAUGACACGCAAAACGCGUGCUCCGUUGAAUGGAGUUUAUCAUG, the “polymerase ribozyme fitness (log ratio)” value is -3.33.

Regarding GGAUCUUCUCGCUCUAACAAAAAAGACAUAUCUGCCACAAAGCUUGAGAGCAUCUUCGGAUGCAGGGGCGGCAGCCUUCGGUGGCGCGAUAGCGCCAACGGUCUCAACUAUGACACGCAAAACGCGUGCUGCGUUGAAUGGAGUUUAUCAUG, the “polymerase ribozyme fitness (log ratio)” value is not above -4.2.

As for GGAUCUUCUCGAUCUAACAAAAAAGACAAAUCUGCCACCAAGCUUGAGAGCAUCUUCGGAUGCAGAGGCGGCAGCCUUCGGUGGCGCGAUAGCGCGAACGUUCUCAACUAUGACACGCAAAACGCGUGCUCCGUUGUAUGGAGUUUAUCAUG, the “polymerase ribozyme fitness (log ratio)” value was not above -4.2.

As for GGACCUUCUCGAUCUAACAAAGAAGACAAAUCUGCCACAAAGCUUGAGAGCAUCUUCGGAUGCAGAGGCGGCAGCCUUCGGUGGCACGAUAGCGCCAACGUUCUCAACUAUGACACGCAAAACGCGUGCUCCGUUGAAUGGAGUUUAUCAUG, the “polymerase ribozyme fitness (log ratio)” value was -1.64.

As for GGAUCUUCUCGAUCUAACAAAAAAGACAAAUCUGCCGCUAAGCUUGAGAGCAUCUUCCGAUAUUGAGGCGGCAGCCAUCGGUGGCGGGAUAGCGCCAACGUUGUCAACUAUGACACGCAAAACGCGUGCUCCGUUGAAUGGAGUUUAUCUUG, the “polymerase ribozyme fitness (log ratio)” value is not above -4.2.

For the variant GGAUCUUCUCGAUCUAACAAAAGAGACAAGUCUGCCACAAAGCUUGAGAGCUUCUUCGGAUGCAGAGGCGGCAGCCUUCGGUGGCGCGAUAGCGCCAACGUUCUCAACUAUGACAUGCAAAACGCGUGCUCUGUUGAAUGGAGUUUAUCAUG, the “polymerase ribozyme fitness (log ratio)” value is not above -4.2.

Regarding GGAUCUUCUCGAUCUAACAAAAAAGACAAAUCUGCCACAAAGCUUGAGAGCAUAUUCGGAUGCAGAGGCGGCAGCCUUCGGUGGCGCGAUAGCGCCAAAGUUCUCAACUAUGACACGCAAAACGCGUGCUCCGUUGAAUGUAGUUUAUCAUG, the “polymerase ribozyme fitness (log ratio)” value is -2.47.

On to GGAUCUUCGCGAUCUAACAAAAAAGACAAAUCUGCCACAAAGCUUGAGAGCAUCUUCGGAUGCAGAGGCGGCAGCCUUCGGUGGCACGAUAGCGCCAACGUUCUCAACUAUGACACGCAAAACGCGUGCUCCGUUGAGUGGAGUUUAUCAUG, for which the “polymerase ribozyme fitness (log ratio)” value was not above -4.2.

On to GGAUCUUCUCGAUCUAACAAAAAAGACAAAUCUGCCACACAGCUUGAGAGCAUCUUCGGAUGCAGAGGCGGCAGCCUUCGGUGGCGCGAUAGCGCCAACGUUCUCAACUAUGACACGCAAAACGCGUGCUCCGUAGAAUGGAGUUUAUCAUG, for which the “polymerase ribozyme fitness (log ratio)” value is -0.385.

For the variant GGAUCUUCUCGAUCUAACAAGAAAGACAAAUCUGCCACAAAGCUUGAGAGCAUCUUCGGAUGCAGAGGCGGCAGUCUUCGGUGGCGCGAUAGCGCCAGGGUUCUCAACUAUGAUACGCAAAACGCGUGCUCCGUUGAAUGGAGUUUAUCAUG, the “polymerase ribozyme fitness (log ratio)” value was not above -4.2.

As for GGAUCUUCUCGAUAUAACACAAAAGAGAAAUCUGCCACAAAGCUUGAGAGCAUCUUCGGAUGCAGAGGCGGCAGCCUUCGGUGGCGCGAUAGCGCCAACGUUCUCAACUAUGACACGCAAAACGCGUGCUCCGUUGAAUGGAGUUUAUCAUG, the “polymerase ribozyme fitness (log ratio)” value is not above -4.2.

Turning to GGAUCUUCUCGAUCUAACAAAAAAGACAGAUCUGGCACAAAGCUUGAGAGCAUCUUCGGAUGCAGAGGCGGCAGCCUUCGGUGCCGCGAUAGCGCCAACAUUCUCAACUAUGACACGCAAAACGCGUGCUCCGUUGAAUGGAGUUUAUCAUG, the “polymerase ribozyme fitness (log ratio)” value was not above -4.2.

GGAUCUUCCCGAUCUAACAAAAAAGACAUACCUGCCACAAAGCAUGAGAGCAUCUUCGGAUGCAGAGGCGGCAGACUUCGGUGGAGCGAUAGCGCCAACGUUCUCAACUAUGACACGCAAAACGCGUGCUCCGUUGAAUGAAGUUUAUCAUG: the “polymerase ribozyme fitness (log ratio)” value was not above -4.2.

Take GGAUCUUCUCGAUCUAACAAAAAAGACAAAUCUGCCUCAAAGCUUGAGAGCAUCUUCGGAUGCAGAGGCGGCAGCCUUCGGUGGCUCGAUAGCGCCAACGUUCUCAACUAUGACACGCAAAACGCGUGCUCCGUUGAAUGGAGUUUAUCAUG: the “polymerase ribozyme fitness (log ratio)” value is -3.44.
